Substitutions are numbered along the chain they refer to.
B1: AHP30826 (antibody, V domains shown)
VH: QVQLQQSGGGSVQAGGSLRLSCAASGTILSINAMGWYRQAPGKQRELVATITTGGNANYAHSVKGRFTISRDNAKNTVYLQMNNLKPEDTAVYYCNAEQVVVGFLQAYDVWGQGTTVTVSS
VL: DVVMTQSPLSLPVTLGQAASISCRSSQSLVHGDGNTYLNWIQQRPGQSPRRLIYKVSNRDSGVPDRFSGSGSGTDFTLKISRVEAEDVGVYYCMQGTHWPSTFGPGTKVDIK
B2: AHP29153 (antibody, V domains shown)
VH: QLQQVESGGGLVQPGGSLRLSCAASRNIGILSTMGWYRQAPGKQRELVATITRGGSTNYGEFVKGRFTISRDNAKNTVYLQMNSLKPEDTAVYYCNVDESWLGTQSYWGRGTTVTVSS
VL: QSVLTQPASVSGSPGQSITISCTGTSSDVGGYKYVSWYQQPPGKAPKLIIYEVTKRPSGVPDRFSGSKSGNTASLTVSGLQAEDEADYYCLSYAGSNNVFGTGTKLTVL
B3: AHP32913 (antibody, V domains shown)
VH: B2 VH with L2V, Q4L, V5M, E6Q, T113Q
VL: QAVVTQEPSLTVSPGGTVTLTCGSSTGPVTSGHYPHWYQQKPGQAPKTLIFDTSHKHPWTPAQFSGSLLGGKAALTLSGAHPEDEAEYYCLLSYSGVRVFGGGTQLIIL
B4: AHP32982 (antibody, V domains shown)
VH: B2 VH with L2V, Q4L, E6Q, T112P, T113L
VL: DIVMTQSPSSVSASVGDRVTITCRASQGISSWLAWYQQKPGKAPKLLIYAASSLQSGVPSRFSGSGSGTDFTLTISSLQPEDFATYYCQQANSFPLTFGGGTKVEIK
B5: AHP31548 (antibody, V domains shown)
VH: B2 VH with L2V, Q4L, V5M, E6Q
VL: QSALTQPPSASGSPGQSVTISCTGTSSDIGTYNFVSWYQQHPGKAPKLIIYEVSKRPSGVPDRFSGSKSGNTASLTVSGLQAEDEADYYCKSYPRVFGTGTKLTAL
B6: AHP32919 (antibody, V domains shown)
VH: QVQLQESGGGVVQPGGSLRLSCAASQSIGLLSTMGWYRQAAGKQRELVATITRGGSTNYGEFVKGRFTISRDNAKNTVYLQMNSLKPEDTAVYYCTADESWLGTQSYWGRGTRVTVSS
VL: QAGLTQPPSASGTPGQGVTISCSGSSSNIGSNSVNWYQQLPGTAPKLLMHSNNERSSGVPDRFSGSKSGSSASLAISGLQSEDAADYFCGAWDDSLNGYVFGTGTKLTVL

Target: murine Claudin 18.2 expressed on HEK293 cells (murine) (UniProt P56857)
Experiment: flow cytometry on HEK293 cells expressing murine Claudin 18.2

Sequence of murine Claudin 18.2 expressed on HEK293 cells (murine) (P56857 whole entry): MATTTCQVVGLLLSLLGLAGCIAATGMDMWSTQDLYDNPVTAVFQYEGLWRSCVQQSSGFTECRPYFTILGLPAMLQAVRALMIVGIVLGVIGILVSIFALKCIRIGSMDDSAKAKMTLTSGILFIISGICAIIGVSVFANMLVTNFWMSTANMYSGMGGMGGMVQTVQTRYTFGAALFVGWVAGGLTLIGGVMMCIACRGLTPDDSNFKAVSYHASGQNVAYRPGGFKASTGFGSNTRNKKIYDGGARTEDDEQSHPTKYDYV

Binder	EC50
B1	3.44 nM
B2	4.45 nM
B3	0.728 nM
B4	4.03 nM
B5	1.67 nM
B6	0.772 nM

— patent EP4786493A1
